In article PMC2816692, “Structural and Biochemical Characterization of SrcA, a Multi-Cargo Type III Secretion Chaperone in Salmonella Required for Pathogenic Association with a Host” (PLoS Pathogens, 2010):

Target: the molecule itself
Experiment: SEC; SrcA alone, 200 µl at 1.1 mg/ml; Superdex S200 10/300GL; 20 mM Tris pH 7.5, 200 mM KCl

B1: His-tagged SrcA (SsrB-regulated chaperone A, STM2138) (natural protein)
chain: MYSRADRLLRQFSLKLNTDSIVFDENRLCSFIIDNRYRILLTSTNSEYIMIYGFCGKPPDNNNLAFEFLNANLWFAENNGPHLCYDNNSQSLLLALNFSLNESSVEKLECEIEVVIRSMENLYHILQDKGITLDTDYT
notes: SrcA (STM2138), type III secretion chaperone of Salmonella enterica serovar Typhimurium; the srcA gene was amplified from chromosomal DNA; STM numbers count on the LT2 genome; Dimer by crystal structure and gel filtration; source: E. coli Rosetta (DE3), purified (nickel-chelating resin, Mono-Q anion exchange); not shown: His6, C-terminal, kept
  stoichiometry N: 2
